Measured values as given in the supplement of paper PMC10065799, “High-throughput profiling of sequence recognition by tyrosine kinases and SH2 domains using bacterial peptide display” (eLife, 2023).

Columns and labels:
[1] = target: EPHB2 (UniProt P29323); experiment: phosphorylation enrichment, bacterial display (enrichment ratio); higher = better substrate or ligand; peptides without Tyr show the background
[2] = target: Jak2 (UniProt O60674); experiment: as above
[3] = target: Hck (UniProt P08631); experiment: as above
[4] = target: Fes (UniProt P07332); experiment: as above
Chain of Fes (P07332 whole entry, looked up): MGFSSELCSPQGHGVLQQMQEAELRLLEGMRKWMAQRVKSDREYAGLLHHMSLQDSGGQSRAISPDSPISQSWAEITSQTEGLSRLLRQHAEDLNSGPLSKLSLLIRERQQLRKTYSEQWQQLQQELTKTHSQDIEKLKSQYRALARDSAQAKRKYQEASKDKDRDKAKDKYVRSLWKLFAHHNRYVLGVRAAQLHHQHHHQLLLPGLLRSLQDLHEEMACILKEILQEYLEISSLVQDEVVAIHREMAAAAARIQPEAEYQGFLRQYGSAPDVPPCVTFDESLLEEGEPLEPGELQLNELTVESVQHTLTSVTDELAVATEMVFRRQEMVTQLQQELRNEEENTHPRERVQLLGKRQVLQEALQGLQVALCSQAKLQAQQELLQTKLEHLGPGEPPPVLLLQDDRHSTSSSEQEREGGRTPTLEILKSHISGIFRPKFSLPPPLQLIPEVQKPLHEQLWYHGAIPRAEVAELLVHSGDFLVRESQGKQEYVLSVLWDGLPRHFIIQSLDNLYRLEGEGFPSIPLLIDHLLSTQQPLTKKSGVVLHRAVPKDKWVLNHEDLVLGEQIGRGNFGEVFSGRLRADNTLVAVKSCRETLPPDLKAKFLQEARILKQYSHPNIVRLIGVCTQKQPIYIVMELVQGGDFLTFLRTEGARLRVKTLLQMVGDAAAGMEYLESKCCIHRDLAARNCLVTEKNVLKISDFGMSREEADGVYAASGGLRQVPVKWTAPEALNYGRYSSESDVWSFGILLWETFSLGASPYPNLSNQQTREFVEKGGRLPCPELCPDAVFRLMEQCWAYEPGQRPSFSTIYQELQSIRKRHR

[5] = target: MERTK (UniProt Q12866); experiment: as above
[6] = system: AncSZ; experiment: as above
[7] = target: Fyn (UniProt P06241); experiment: as above
[8] = target: EPHB1 (UniProt P54762); experiment: as above
Chain of EPHB1 (P54762 whole entry, looked up): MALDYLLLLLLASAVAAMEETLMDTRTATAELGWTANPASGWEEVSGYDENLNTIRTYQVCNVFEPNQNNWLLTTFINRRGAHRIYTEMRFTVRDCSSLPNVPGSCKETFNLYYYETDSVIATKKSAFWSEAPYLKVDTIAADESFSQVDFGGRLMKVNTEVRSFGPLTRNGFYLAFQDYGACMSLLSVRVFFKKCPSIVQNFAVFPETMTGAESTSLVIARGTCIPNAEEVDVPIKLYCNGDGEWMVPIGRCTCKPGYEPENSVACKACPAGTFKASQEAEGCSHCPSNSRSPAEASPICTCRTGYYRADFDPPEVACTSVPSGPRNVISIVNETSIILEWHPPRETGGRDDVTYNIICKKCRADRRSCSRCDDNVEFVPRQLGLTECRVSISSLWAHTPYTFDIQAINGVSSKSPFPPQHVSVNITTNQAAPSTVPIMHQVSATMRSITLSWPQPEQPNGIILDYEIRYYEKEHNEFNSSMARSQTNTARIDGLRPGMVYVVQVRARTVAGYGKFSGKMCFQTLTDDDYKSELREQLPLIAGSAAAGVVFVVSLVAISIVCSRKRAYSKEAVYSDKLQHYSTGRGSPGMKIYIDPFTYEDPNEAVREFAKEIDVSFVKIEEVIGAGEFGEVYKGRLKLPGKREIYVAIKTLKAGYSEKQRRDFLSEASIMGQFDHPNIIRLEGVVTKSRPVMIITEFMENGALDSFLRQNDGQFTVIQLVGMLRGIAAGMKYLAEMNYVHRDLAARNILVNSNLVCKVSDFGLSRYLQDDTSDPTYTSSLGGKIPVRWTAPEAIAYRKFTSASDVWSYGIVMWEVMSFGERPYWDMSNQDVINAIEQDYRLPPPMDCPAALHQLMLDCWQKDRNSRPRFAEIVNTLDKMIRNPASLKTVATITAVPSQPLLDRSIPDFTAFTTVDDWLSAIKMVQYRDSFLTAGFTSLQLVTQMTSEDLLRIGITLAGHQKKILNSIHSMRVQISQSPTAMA

[9] = system: c-Src; experiment: as above
[10] = system: c-Abl (mouse); experiment: as above
[11] = target: FGFR3 (UniProt P22607); experiment: as above
Chain of FGFR3 (P22607 whole entry, looked up): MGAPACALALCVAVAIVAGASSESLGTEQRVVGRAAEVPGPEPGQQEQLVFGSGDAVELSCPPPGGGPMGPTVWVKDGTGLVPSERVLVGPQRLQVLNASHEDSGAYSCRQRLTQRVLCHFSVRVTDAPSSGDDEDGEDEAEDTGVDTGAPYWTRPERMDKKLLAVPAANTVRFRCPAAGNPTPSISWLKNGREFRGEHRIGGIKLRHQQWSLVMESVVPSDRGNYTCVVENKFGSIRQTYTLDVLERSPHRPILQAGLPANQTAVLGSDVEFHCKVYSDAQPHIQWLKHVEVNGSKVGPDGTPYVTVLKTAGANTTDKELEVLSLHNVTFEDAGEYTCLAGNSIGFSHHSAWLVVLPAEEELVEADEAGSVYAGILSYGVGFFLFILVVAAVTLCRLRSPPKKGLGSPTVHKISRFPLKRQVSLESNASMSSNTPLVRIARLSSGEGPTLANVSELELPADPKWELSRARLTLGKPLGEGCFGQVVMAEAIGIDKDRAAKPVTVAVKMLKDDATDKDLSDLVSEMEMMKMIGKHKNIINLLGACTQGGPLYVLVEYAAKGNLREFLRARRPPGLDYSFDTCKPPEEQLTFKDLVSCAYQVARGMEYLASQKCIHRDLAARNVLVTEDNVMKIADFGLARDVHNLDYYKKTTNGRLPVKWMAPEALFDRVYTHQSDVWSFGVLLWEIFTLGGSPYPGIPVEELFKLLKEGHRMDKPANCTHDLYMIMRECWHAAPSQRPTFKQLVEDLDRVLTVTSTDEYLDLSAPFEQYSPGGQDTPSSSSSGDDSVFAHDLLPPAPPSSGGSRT

[12] = target: FGFR1 (UniProt P11362); experiment: as above
Chain of FGFR1 (P11362 whole entry, looked up): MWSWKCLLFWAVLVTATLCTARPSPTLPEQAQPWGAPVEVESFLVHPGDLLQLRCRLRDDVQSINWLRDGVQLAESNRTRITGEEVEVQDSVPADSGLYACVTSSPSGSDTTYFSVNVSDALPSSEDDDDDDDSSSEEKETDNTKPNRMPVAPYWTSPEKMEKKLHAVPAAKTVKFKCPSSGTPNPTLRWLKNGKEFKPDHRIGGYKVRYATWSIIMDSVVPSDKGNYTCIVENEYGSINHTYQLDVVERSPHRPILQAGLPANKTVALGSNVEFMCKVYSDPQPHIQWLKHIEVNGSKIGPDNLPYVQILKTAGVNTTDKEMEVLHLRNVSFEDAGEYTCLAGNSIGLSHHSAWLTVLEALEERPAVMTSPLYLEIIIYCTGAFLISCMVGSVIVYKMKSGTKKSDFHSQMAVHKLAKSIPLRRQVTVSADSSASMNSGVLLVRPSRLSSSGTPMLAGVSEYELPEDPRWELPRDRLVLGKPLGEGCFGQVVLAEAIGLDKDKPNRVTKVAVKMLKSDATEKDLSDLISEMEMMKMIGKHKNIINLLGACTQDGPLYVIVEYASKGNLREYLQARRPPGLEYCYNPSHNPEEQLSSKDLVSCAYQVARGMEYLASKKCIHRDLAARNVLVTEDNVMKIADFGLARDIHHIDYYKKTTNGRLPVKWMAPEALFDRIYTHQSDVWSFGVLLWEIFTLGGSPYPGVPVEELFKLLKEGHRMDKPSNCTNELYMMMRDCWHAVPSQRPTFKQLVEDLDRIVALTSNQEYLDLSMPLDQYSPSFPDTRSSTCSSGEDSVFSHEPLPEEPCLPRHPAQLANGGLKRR

[13] = system: Fer (mouse); experiment: as above
[14] = target: Grb2 SH2 (UniProt P62993); experiment: SH2 binding enrichment of the phosphorylated peptide, bacterial display (enrichment ratio); higher = better substrate or ligand; peptides without Tyr show the background
Chain of Grb2 SH2 (P62993 whole entry, looked up): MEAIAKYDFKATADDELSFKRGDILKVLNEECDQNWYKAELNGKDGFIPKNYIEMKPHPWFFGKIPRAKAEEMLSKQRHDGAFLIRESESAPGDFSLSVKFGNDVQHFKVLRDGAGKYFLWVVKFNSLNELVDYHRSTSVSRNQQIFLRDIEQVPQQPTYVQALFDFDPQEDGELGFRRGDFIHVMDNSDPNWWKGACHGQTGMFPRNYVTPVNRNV

[15] = target: c-Src SH2; experiment: as above
[16] = target: SHP2-C SH2; experiment: as above
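Throughout, for SH2 binding enrichment of the phosphorylated peptide, bacterial display: peptide library displayed on the E. coli surface as eCPX fusions, selected cells deep-sequenced, score is each peptide's frequency after selection divided by its frequency in the input.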
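Throughout, for phosphorylation enrichment, bacterial display: 11-residue human phosphosite peptides and single-mutation variants displayed on the E. coli surface, counted by deep sequencing, each peptide's frequency after selection divided by its frequency in the unselected input library; frequency after pTyr selection over input frequency; kinase dosed for 20-30% of maximal phosphorylation in three min.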

Chain of Jak2 (O60674 whole entry, looked up): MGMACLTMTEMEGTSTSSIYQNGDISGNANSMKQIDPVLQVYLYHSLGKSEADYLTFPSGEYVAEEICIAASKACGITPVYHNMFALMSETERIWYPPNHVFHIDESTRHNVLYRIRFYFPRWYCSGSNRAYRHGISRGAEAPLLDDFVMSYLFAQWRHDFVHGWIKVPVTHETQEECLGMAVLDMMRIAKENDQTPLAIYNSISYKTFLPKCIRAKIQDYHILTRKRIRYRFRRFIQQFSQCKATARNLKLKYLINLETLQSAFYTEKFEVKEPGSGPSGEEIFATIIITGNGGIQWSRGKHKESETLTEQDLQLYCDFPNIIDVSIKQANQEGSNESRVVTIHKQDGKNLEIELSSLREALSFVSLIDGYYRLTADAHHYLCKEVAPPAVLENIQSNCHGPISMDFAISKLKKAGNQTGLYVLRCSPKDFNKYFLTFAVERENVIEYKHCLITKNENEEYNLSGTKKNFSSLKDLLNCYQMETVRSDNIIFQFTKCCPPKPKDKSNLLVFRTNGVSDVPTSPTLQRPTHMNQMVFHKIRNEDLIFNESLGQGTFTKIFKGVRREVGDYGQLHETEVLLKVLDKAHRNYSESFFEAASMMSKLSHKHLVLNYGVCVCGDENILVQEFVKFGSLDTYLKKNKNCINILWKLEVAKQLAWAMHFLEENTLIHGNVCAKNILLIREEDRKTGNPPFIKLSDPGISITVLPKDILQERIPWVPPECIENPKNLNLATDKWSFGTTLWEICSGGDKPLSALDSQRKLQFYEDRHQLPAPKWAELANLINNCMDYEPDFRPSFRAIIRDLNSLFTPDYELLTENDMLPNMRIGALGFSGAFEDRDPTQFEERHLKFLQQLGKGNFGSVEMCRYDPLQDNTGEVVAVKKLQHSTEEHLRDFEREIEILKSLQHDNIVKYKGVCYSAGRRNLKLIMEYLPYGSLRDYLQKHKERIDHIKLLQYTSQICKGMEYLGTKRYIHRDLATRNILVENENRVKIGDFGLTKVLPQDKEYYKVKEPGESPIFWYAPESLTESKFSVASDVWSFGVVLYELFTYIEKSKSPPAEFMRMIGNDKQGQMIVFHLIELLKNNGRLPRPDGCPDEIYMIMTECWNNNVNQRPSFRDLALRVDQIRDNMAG

Sequence | phosphorylation enrichment [1] | phosphorylation enrichment [2] | phosphorylation enrichment [3] | phosphorylation enrichment [4] | phosphorylation enrichment [5] | phosphorylation enrichment [6] | phosphorylation enrichment [7] | phosphorylation enrichment [8] | phosphorylation enrichment [9] | phosphorylation enrichment [10] | phosphorylation enrichment [11] | phosphorylation enrichment [12] | phosphorylation enrichment [13] | SH2 binding enrichment [14] | SH2 binding enrichment [15] | SH2 binding enrichment [16]
ERLWDYGMSSS [F8_Y1728] | 0.578 | 0.778 | 0.459 | 1.06 | 0.399 | 0.971 | 0.415 | 0.612 | 0.419 | 0.767 | 0.742 | 0.433 | 0.483 | 0.779 | 0.597 | 0.742
EEGENYQKGEQ [CHGB_Y173_R178Q] | 0.63 | 1.4 | 0.519 | 1.28 | 0.561 | 1.28 | 0.519 | 0.592 | 0.545 | 0.898 | 0.747 | 0.637 | 0.51 | 0.876 | 0.472 | 0.473
CTTIHYNYRCN [TP53_Y234_M237R] | 0.54 | 0.832 | 0.497 | 1.03 | 0.465 | 0.797 | 0.498 | 0.594 | 0.522 | 0.726 | 0.713 | 0.502 | 0.455 | 1.5 | 1.36 | 1.39
HKGASYAFRLS [PTPRD_Y891_V892A] | 0.581 | 0.827 | 0.49 | 0.962 | 0.525 | 1.06 | 0.838 | 0.935 | 0.785 | 0.846 | 1.11 | 0.66 | 0.645 | 0.891 | 0.698 | 0.696
RQNNSYTCYTA [SLC20A2_Y386_R382Q] | 0.76 | 0.787 | 0.694 | 0.897 | 0.476 | 1.11 | 0.58 | 0.597 | 0.915 | 0.582 | 0.659 | 0.557 | 0.528 | 0.739 | 0.664 | 0.644
ISDDKYGRIRL [ARCN1_Y310] | 1.04 | 0.419 | 0.454 | 0.501 | 0.325 | 0.484 | 0.434 | 0.357 | 0.56 | 0.433 | 0.357 | 0.407 | 0.312 | 0.806 | 0.434 | 0.639
RAILLYEFVGK [NATD1_Y45_V42I_YF] | 65.8 | 3.76 | 19.9 | 7.5 | 24.9 | 4.95 | 12.1 | 49.4 | 12.3 | 2.52 | 5.57 | 4.88 | 32.5 | 1.58 | 1.31 | 1.7
QKPLDYFRVNL [GALE_Y104_YF] | 0.636 | 8.52 | 0.647 | 1.59 | 0.647 | 1.41 | 0.58 | 1 | 0.711 | 0.905 | 4.41 | 7.69 | 0.643 | 1.05 | 0.747 | 0.68
RLQEDYDHSFF [ESD_Y258_G257D_YF] | 0.912 | 1.65 | 0.869 | 1.55 | 0.649 | 1.74 | 0.792 | 1.21 | 1.07 | 1.19 | 1.2 | 0.842 | 0.919 | 0.901 | 0.339 | 0.914
PIPAAYNRFDQ [CDC73_Y290_YF] | 0.426 | 0.833 | 0.446 | 0.778 | 0.509 | 0.513 | 0.451 | 0.643 | 0.303 | 0.357 | 0.643 | 0.456 | 0.485 | 0.792 | 0.579 | 0.648
SENPKYPEVGD [TMEM43_Y233] | 0.561 | 0.891 | 0.536 | 1.2 | 0.522 | 1.01 | 0.616 | 0.459 | 0.584 | 0.822 | 0.734 | 0.6 | 0.424 | 1.27 | 0.482 | 0.594
PSQRRYLFFFS [PTEN_Y174_V175L_YF] | 0.804 | 1.74 | 0.716 | 1.93 | 0.756 | 1.86 | 0.753 | 0.818 | 0.441 | 0.991 | 0.915 | 0.607 | 0.531 | 0.936 | 0.655 | 1.15
KNEVLYDEENH [ARFGEF1_Y314_G316E] | 0.618 | 1.3 | 0.547 | 1.4 | 0.401 | 1.25 | 0.537 | 0.568 | 0.582 | 0.997 | 0.671 | 0.591 | 0.5 | 0.664 | 0.636 | 0.789
VLTPKYRGGGG [HBA1_Y141_S139P] | 0.372 | 0.335 | 0.32 | 0.464 | 0.35 | 0.498 | 0.363 | 0.328 | 0.34 | 0.421 | 0.413 | 0.348 | 0.364 | 1.03 | 0.557 | 0.691
EQKKFSNAMKK [SCN5A_Y1495_Y1495S_YF] | 0.345 | 0.315 | 0.364 | 0.473 | 0.326 | 0.474 | 0.293 | 0.229 | 0.401 | 0.375 | 0.693 | 0.378 | 0.331 | 0.735 | 0.642 | 0.64
RDMNAYISPSP [MMAA_Y207_R209S] | 0.477 | 0.879 | 0.323 | 1.03 | 0.451 | 0.505 | 0.365 | 0.553 | 0.416 | 0.671 | 0.508 | 0.432 | 0.66 | 1.01 | 0.567 | 0.715
CEAVEYLESKQ [BTK_Y511_M509V] | 0.802 | 1.32 | 0.613 | 1.41 | 0.384 | 1.3 | 0.443 | 0.546 | 0.52 | 0.738 | 0.875 | 0.534 | 0.564 | 0.929 | 0.539 | 0.643

Sequence | phosphorylation enrichment [1] | phosphorylation enrichment [2] | phosphorylation enrichment [3] | phosphorylation enrichment [4] | phosphorylation enrichment [5] | phosphorylation enrichment [6] | phosphorylation enrichment [7] | phosphorylation enrichment [8] | phosphorylation enrichment [9] | phosphorylation enrichment [10] | phosphorylation enrichment [11] | phosphorylation enrichment [12] | phosphorylation enrichment [13] | SH2 binding enrichment [14] | SH2 binding enrichment [15] | SH2 binding enrichment [16]
NAPNSYGRRPS [CDKN2A_Y44_I49S] | 0.593 | 0.711 | 0.512 | 0.849 | 0.499 | 0.805 | 0.582 | 0.481 | 0.49 | 0.63 | 0.541 | 0.46 | 0.588 | 0.774 | 0.747 | 0.533
LIGRRCDDPEV [HSPA9_Y128_Y128C] | 0.623 | 1.41 | 0.575 | 1.51 | 0.582 | 1.76 | 1.12 | 0.782 | 0.722 | 1 | 1.03 | 0.697 | 0.666 | 0.997 | 0.431 | 0.557
YQLENYCNGGG [INS_Y108] | 0.572 | 0.461 | 0.568 | 0.812 | 0.426 | 0.768 | 0.57 | 0.686 | 0.455 | 0.473 | 0.477 | 0.536 | 0.55 | 0.862 | 0.76 | 0.697
SLIDMYSEVPD [OPA1_Y268_L272P] | 0.679 | 1.24 | 0.594 | 1.03 | 0.604 | 1.27 | 0.595 | 0.48 | 0.747 | 0.619 | 0.895 | 0.892 | 0.422 | 0.675 | 0.545 | 0.7
TYEPNYGTVKQ [RAPGEF6_Y1447] | 5.21 | 0.47 | 1.66 | 0.667 | 0.644 | 0.864 | 2.21 | 1.54 | 1.44 | 1.2 | 0.659 | 0.553 | 2.44 | 0.748 | 0.556 | 0.696
DWRQEYVLNEP [TGM1_Y267_S272P] | 0.426 | 0.988 | 0.397 | 1.13 | 0.495 | 1.24 | 0.672 | 0.407 | 1.89 | 0.669 | 1.24 | 1.7 | 0.55 | 0.877 | 0.523 | 0.75
FSEVRYMKEPF [HIPK4_Y170_V171M_YF] | 0.459 | 0.741 | 0.438 | 0.821 | 0.32 | 0.677 | 0.379 | 0.473 | 0.388 | 0.66 | 0.48 | 0.451 | 0.36 | 0.863 | 0.547 | 0.646
PGNIVYSSLCG [BCOR_Y90] | 0.987 | 1.65 | 5.25 | 1.62 | 1.6 | 1.38 | 3.13 | 0.914 | 5.73 | 1.83 | 1.02 | 0.892 | 1.18 | 0.875 | 0.579 | 1.51
LLLLFCVVRFC [MPZ_Y177_Y177C_YF] | 0.56 | 0.607 | 0.75 | 1.12 | 0.718 | 1.01 | 0.712 | 0.803 | 0.719 | 0.933 | 1.56 | 0.973 | 1.16 | 1.47 | 0.857 | 1.77
SGSIHYSHVPR [GLB1_Y57_R59H] | 0.451 | 0.6 | 0.451 | 0.79 | 0.425 | 0.681 | 0.35 | 0.426 | 0.383 | 0.658 | 0.518 | 0.451 | 0.606 | 0.745 | 0.593 | 1.55
PQAVTYATVKH [LILRB4_Y360_K362T] | 0.615 | 0.882 | 2.92 | 0.776 | 0.543 | 0.655 | 1.72 | 0.735 | 2.83 | 0.856 | 0.607 | 0.423 | 0.624 | 0.851 | 3.11 | 85.4
DAMQTYNGNDE [TSPAN7_Y131] | 0.576 | 1.03 | 0.494 | 1.11 | 0.585 | 1.01 | 0.55 | 0.637 | 0.685 | 0.653 | 0.837 | 0.508 | 0.531 | 0.654 | 0.71 | 0.613
DLAHKYHGGGG [HBB_Y146_A141D] | 0.392 | 0.545 | 0.348 | 0.473 | 0.452 | 0.441 | 0.373 | 0.333 | 0.388 | 0.394 | 0.388 | 0.43 | 0.32 | 0.722 | 0.42 | 0.54
PQDVTYARLHS [LILRB4_Y412_Q414R] | 0.797 | 0.518 | 4.33 | 1.51 | 0.735 | 0.757 | 1.91 | 0.808 | 2.3 | 0.842 | 0.603 | 0.774 | 0.786 | 0.85 | 1.12 | 5.59
NTILLYHIMAW [GPR143_Y157_S152N] | 3.9 | 2.07 | 1.56 | 1.62 | 4.42 | 1.52 | 0.8 | 5.65 | 1.27 | 1.25 | 3.15 | 3.19 | 0.89 | 0.801 | 0.577 | 0.829
MECLPYGSLRD [JAK2_Y934_Y931C] | 0.577 | 1.07 | 0.711 | 1.29 | 0.409 | 1.08 | 0.753 | 0.598 | 1.65 | 0.75 | 0.794 | 0.522 | 0.669 | 0.785 | 0.467 | 0.468
